Measurements from the DeepSol protein solubility set.

Experiment: soluble on expression in E. coli; label from the status in PepcDB or PDB records

| Sequence | soluble on expression in E. coli |
| --- | --- |
| MASTSKPAASTTAIKKYYFYVLLCADQTLYGGFTDNLQRRLATHNAGKGAKYTRVRSRRPLQLIYHETFTDKSSALKAEYAFKHQSRAAKLKYLSAHDVKILEHHHHHH | not soluble |
| MASVHGTTYELLRRQGIDTVFGNPGSNELPFLKDFPEDFRYILALQEACVVGIADGYAQASRKPAFINLHSAAGTGNAMGALSNAWNSHSPLIVTAGQQTRAMIGVEALLTNVDAANLPRPLVKWSYEPASAAEVPHAMSRAIHMASMAPQGPVYLSVPYDDWDKDADPQSHHLFDRHVSSSVRLNDQDLDILVKALNSASNPAIVLGPDVDAANANADCVMLAERLKAPVWVAPSAPRCPFPTRHPCFRGLMPAGIAAISQLLEGHDVVLVIGAPVFRYHQYDPGQYLKPGTRLISVTCDPLEAARAPMGDAIVADIGAMASALANLVEESSRQLPTAAPEPAKVDQDAGRLHPETVFDTLNDMAPENAIYLNESTSTTAQMWQRLNMRNPGSYYFCAAGGLGFALPAAIGVQLAEPERQVIAVIGDGSANYSISALWTAAQYNIPTIFVIMNNGTYGALRWFAGVLEAENVPGLDVPGIDFRALAKGYGVQALKADNLEQLKGSLQEALSAKGPVLIEVSTVSPVKHHHHHH | soluble |
| MATARTARSRRKVRKVRDKWKEKVWYEIYATPEFGGVFIGYTPANDPSLVLGRVAETSLRDLTGDPTKHMHRVYFKIFGVTGNKAIAQYYGHDTTREFMKSQIRRRRSRIDAILDVKTQDGHKIRTKAMVLTAYRANTKQKSDIRKKMEEIIKAMAKEKTFPQYVQAMLFGEMAEKIKNECKKIFPIKNVIIYKSEVLSLAKKEENEGFVKEAEEETAEAQELEHHHHHH | soluble |
| MATESALIKVHVKSPSNKYDVEIAADASVSELKDKVLVFVPTANKEQVCIIYTGKILKDEETLTQHKIADGHTVHLVIRNQARPTPAPAAATPTASSAPSSNPTPSSQPNPTNNPFAAMGGMGSPADILNNPDAMRSVMDNPITQQLLGNPEFMRTIIQSNPQFQALIERNPEVGHILNDPNVMRQTMEMIRNPNMFQEMMRNHDQAIRNLQGIPGGEAALERLYNDVQEPLLNSATNSLSGNPFASLRGDQSSEPRVDRAGQENNEALPNPWASNANQATNNQSNNRSADFNSLLDSPGISSLMEQMMSNPSMQASMFSPEVINSIRQNMSNNPGLIDSIVGQIPSARDNPQISEGIRRSFPQMLNMMSDPSVMEAMRNPRVSEAFRQIQEGFSTLRREAPQLLNLFQAGAMGGGAFGSDANASSAGANSANGLADLFNSMNMGGGRPSSTAAPVNPEQTYASQLEQLQSMGFSDRARNVAALTATFGDLNAAVERLLNSP | not soluble |
| MATGLGFFKLSFLLSLLSGGSDLLGPDAESGVAQIGKFPPSCNRIECPSYELVHSGNGYEIRRYNNTVWVSTEPIPDISLVDATRTAFFQLFAYIQGKNEYHQKIEMTAPVISQVSPSDGPFCESSFTVSFYVPKKNQPDPAPSENLHIQKWNSRYVAVRQFSGFVSDDSIGEQAAALDSSLKGTAWANAIAKSKEDGGVGSDSAYTVAQYNSPFEFSGRVNEIWLPFELDV | not soluble |
| MATKNEELPIIDLAATEGYIVDDTDEDDPVLLAPDGTPIDTWRENYPYEERMTRDEYEKTKRALQIELLKWQNWTKDTGQRHIILFEGRDAAGKGGTIKRFNEHLNPRGARTVALEKPSPRESTSWYFQRYIEHFPCAGEIVFFDRSWYNRSGVERVMGFCTESQHAEFLREVPMLENMILGSGISLTKFWFSVTQKEQRTRFAIRQVDPVRQWKLSPMDLASLDRWDDYTRAKEEQFRYTDTDEAPWITIRSNDKKRARINAMRYILSKFEYSNKDHDLVGEPDPLIVMRGRDRIGD | not soluble |
| MATKPQDANTTSREAITSKADSPPRPTALIFDSGVGGLSVYQEIRQLLPDLHYIYAFDNVAFPYGEKSGEFIVERVLEIVTAVQQRHPLAIVVIACNTASTVSLPALRERFAFPVVGVVPAIKPAVRLTRNGVVGLLATRATVHASYTLDLIARFATDCKIELLGSSELVEVAETKLHGGVVPLEVLKKILHPWLSMREPPDTIVLGCTHFPLLTEELAQVLPEGTRMVDSGAAIARRTAWLISSQENVISSQDENIAYCMALDEDTDALLPVLQSYGFPKLQKLPI | not soluble |
| MATLDGINVKDIVKVERTSVHSHITGLGLNDRLEAEYVSGGMVGQVAARQAAGLIVKMIQEGKIAGRALLVTGEPGAGKTAIAIAISKELGEDTPFVSIVASEIYSNEINKTEALTQAFRRALGIQIKEETEVLEGEVISLEVDRSANGMGPKVGKLTMRTTDMETIYDLGSKMVDACLKEKVMPGDVIQVDKASGRVTRLGRSFNRSHDYDAMGPKVKLVQCPDGEIQKRRETVHTVCLHDIDVINSRTQGYVALFSGDTGEIKAEVRDQINKKVLEWREEGKAKFVPGVLFIDEAHMLDIECFSFLNRAIEGELSPLIIMATNRLIEKVRGTDVESAHGIPSDFLDRMLIINAIPYTKEDTAKILSIRCDEEGVKLQPTALDLLVKLQEATSLRYCIHLIAASEVIRIRSKAEIVTTDHIGSAYRLFFDTKRSEKILTEESAGFLQ | not soluble |
| MATPSLTDACVHCGFCLSDCPSYRVLGRETDSPRGRVYLMDSLQQGRIELSDTVVEHFDTCLGCLACTSACPSGVQYDQLIEEMRQRIAQEHRRPWPEAIWRKLLFAFLPLEHHHHHH | soluble |
| MATPTFDTIEAQASYGIGLQVGQQLSESGLEGLLPEALVAGIADALEGKHPAVPVDVVHRALREIHERADAVRRERFKAMAAEGVKYLEENREKDGVNSTESGLQFRVLTQGEGAIPARTDRVRVHYTGKLIDGTVFDSSVARGEPAEFPVNGVIAGWIEALTLMPVGSKWELTIPQELAYGERGAGASIPPFSTLVFEVELLEIL | not soluble |
| MATSNLLKNKGSLQFEDKWDFMHPIVLKLLRQESVTKQQWFDLFSDVHAVCLWDDKGSSKIHQALKEDILEFIKQAQARVLSHQDDTALLKAYIVEWRKFFTQCDILPKPFCQLEVTLLGKQSSNKKSNMEDSIVRKLMLDTWNESIFSNIKNRLQDSAMKLVHAERLGEAFDSQLVIGVRESYVNLCSNPEDKLQIYRDNFEKAYLDSTERFYRTQAPSYLQQNGVQNYMKYADAKLKEEEKRALRYLETRRECNSVEALMECCVNALVTSFKETILAECQGMIKRNETEKLHLMFSLMDKVPNGIEPMLKDLEEHIISAGLADMVAAAETITTDSEKYREQLDTLFNRFSKLVKEAFQDDPRFLTARDKAYKAVVNDATIFKAENLYFQ | soluble |
| MATTATRHQDSKLSEKAESILAGFKLNWMNLRDAETGKVLWQSTEDMADPKREHKAHVPKNLLKCRTVSREINFTSSVKIEKFRLEQRVYLKGTIIEEWYFDFGFVIPDSTNTWQNMIEAAPESQMFPPSVLSGNVVVETLFYDGDLLVSTSRVRLYYD | not soluble |
| MATWQGTNGGLLAGIGGVNSNAPSVNDIGNTLQLIRQNNDIERSGANNVGLTALQGLSGIAGVFQQEKQAQRQKEFQQAYANAYASGDRGALRQLATQYPDQIESVRKGMGFIDEEQRNSIGTLAAGARLASSSPEAMQSWLQNNAGELARVGVNPHDVAQMYQQNPRQFGEFVDHLGMNSLGPEKYFDLQDKMQGRQVTMRGQDLDSQTAARNQAITMRGQDIQANLGQQRINLDAETNRINNENKRLDRMLSAETNDLKRQEIQSRIAANNQQLQQKQQALNDGYKDGINTLTTSMFTLNDIVSSPSLKSITGLRGVIPNVPGSQAADTQARLDTFKSQAYLTAVQAMRGMGALSDAEGKKLDQAVGSLQNSQSEESFRRNAGVILNTLNQKRNEAVGKYVQQNGIKRVEAPQASIDYLKQHPELSIDFINRYGYLPSLGQ | soluble |
| MAVIKQDDLIQSVADALQFISYYHPVDFIQAMHEAYLREESPAARDSMAQILINSRMCATGHRPICQDTGIVTVFVRVGMDVRWDGATMSVDDMINEGVRRAYNLPENVLRASILADPAGARKNTKDNTPAVIHYSIVPGDKVEVDVAAKGGGSENKSKMAMLNPSDSIVDWVLKTVPTMGAGWCPPGMLGIGIGGTAEKAAVMAKEVLMDPIDIHELKARGPQNRIEELRLELFEKVNQLGIGAQGLGGLTTVLDVKIMDYPTHAASLPVCMIPNCAATRHAHFVLDGSGPAELEAPSLDAYPEIVWEAGPSARRVDLDKITPEEVQSWKPGETLLLNGKMLTGRDAAHKRMVDMLNKGETLPVDLKGRFIYYVGPVDPVGDEVVGPAGPTTATRMDKFTRQILEQTGLLGMIGKSERGPIAIEAIKDNKAVYLMAVGGAAYLVAQAIKKSKVLAFAELGMEAIYEFEVKDMPVTVAVDTNGESVHITGPAVWQ | not soluble |
| MAVIYKTTAHASAGREGVVQTVDGFTVSLAFPKPGATHQDKNNPEQLFASAYAGCFSQAVRVVLQQHQLQLATQPIVGVSVELHDQDGLFHIKAGVELAITGVDQTTAQTVITAAHAMCPFSRLIKPENFLGLTLNGAKL | soluble |
| MAVKLGTLLLALALGLAQPASARRKLLVFLLDGFRSDYISDEALESLPGFKEIVSRGVKVDYLTPDFPSLSYPNYYTLMTGRHCEVHQMIGNYMWDPTTNKSFDIGVNKDSLMPLWWNGSEPLWVTLTKAKRKVYMYYWPGCEVEILGVRPTYCLEYKNVPTDINFANAVSDALDSFKSGRADLAAIYHERIDVEGHHYGPASPQRKDALKAVDTVLKYMTKWIQERGLQDRLNVIIFSDHGMTDIFWMDKVIELNKYISLNDLQQVKDRGPVVSLWPAPGKHSEIYNKLSTVEHMTVYEKEAIPSRFYYKKGKFVSPLTLVADEGWFITENREMLPFWMNSTGRREGWQRGWHGYDNELMDMRGIFLAFGPDFKSNFRAAPIRSVDVYNVMCNVVGITPLPNNGSWSRVMCMLKGRAGTAPPVWPSHCALALILLFLLA | soluble |
| MAVRIVTDSSSGLPAEIAEELGITVVDLHLVASENQVSTAGLSALELTAAYARQLERGGDAGVVALHLSKELSSTWSAAHTAAAVFDGTVDVVDTQSVGMCVGAAAMAAARLAQGGASLRECADMARDTLRRSETWLYLHRMEEMRRSGRITTATAVVSAALATKPIMQLRGGHVELAVKTRTQSKAFARLVAVISDRCAGEPAFVAIQHHQALEAAHSLQSQLTAALPKGSSFMIMDMDQALSVHCGVGALGISVVFSSYSDTAPIDLSTTS | not soluble |
| MAVSPDDPLILVGRVAGGFGVRGEVRITTYTEDPLSIAGFKALKRQDGSPALTIASARKTKDGVVCRCPGVETKEAADALRGLRLYVPRSALPEPDDDEFYLTDLVGLTVRHIQTDQLLGRVKSVQNFGAGDILEITPDLGGPTWYLPFTRAAVPEVRVSEGLILADPPALVGDHEGPEEKGLDENEELGDRDAAALEHHHHHH | not soluble |
| MAVSVGEGPDTKPTARGQPAAVGRVVVLSGPSAVGKSTVVRCLRERIPNLHFSVSATTRCPRPGEVDGVDYHFIDPTRFQQLIDQGELLEWAEIHGGLHRSGTLAQPVRAAAATGVPVLIEVDLAGARAIKKTMPEAVTVFLAPPSWQDLQARLIGRGCETADVIQRRLDTARIELAAQGDFDKVVVNRRLESACAELVSLLVGTAPGSPGVPRGKLAAALEHHHHHH | soluble |
| MAWASPDGHCTVEHSADSVHLWRFEHSVYDGFDTHWTATFTPEVPERLVAQFFTHLATTTPVERVFRDVPYLVQSLDAALITPVNRAAVNPHVHHAGAQLGRAVHRRLEHHHHHH | not soluble |
